What follows are substances tested against IL23R_huFC (human) (UniProt Q5VWK5) (assay: Human IL23R/IL23 ELISA).
Target sequence in this assay (Q5VWK5 24-353): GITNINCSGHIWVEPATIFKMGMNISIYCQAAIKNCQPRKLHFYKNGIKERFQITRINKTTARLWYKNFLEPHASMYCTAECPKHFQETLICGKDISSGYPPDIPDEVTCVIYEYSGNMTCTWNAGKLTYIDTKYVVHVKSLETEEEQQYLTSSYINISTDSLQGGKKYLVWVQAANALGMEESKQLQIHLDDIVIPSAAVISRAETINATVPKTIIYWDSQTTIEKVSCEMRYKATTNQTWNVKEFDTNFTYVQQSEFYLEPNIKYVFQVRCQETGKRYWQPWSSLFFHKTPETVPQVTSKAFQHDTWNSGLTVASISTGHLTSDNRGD

Row | Substance | IC50
1 | Ac-[D-Arg]-Cyclo-[[Abu]-ETWQC]-[Phe(4-2ae)]-[2-Nal]-[THP]-ENN-NH2 (peptide) | 1 to 10 nM
2 | Ac-[D-Arg]-Cyclo-[[Abu]-QTWEC]-[Phe(4-2ae)]-[2-Nal]-[THP]-ENN-NH2 (peptide) | 1 to 10 nM
3 | Ac-[D-Arg]-Cyclo-[[Abu]-QTWEC]-[Phe(4-2ae)]-[2-Nal]-[THP]-END-NH2 (peptide) | 1 to 10 nM
4 | Ac-Cyclo-[[Abu]-QTWQC]-[Phe(4-2ae)]-[2-Nal]-[THP]-EDN-OH (peptide) | 10 to 100 nM
5 | Ac-[D-Arg]-Cyclo-[[Abu]ETWQC]-[Phe(4-2ae)]-[2-Nal]-[THP]-ENN-OH (peptide) | 1 to 10 nM

Results, then the substance that gave them:

Row | IC50 | Substance
6 | 1 to 10 nM | Ac-[D-Arg]-Cyclo-[Abu-ETWEC]-[Phe(4-2ae)]-[2-Nal]-[THP]-ENN-NH2 (peptide)
7 | 10 to 100 nM | Ac-[D-Arg]-Cyclo-[[Abu]-QTWQC]-[Phe(4-2ae)]-[2-Nal]-[THP]-EDN-NH2 (peptide)
8 | 10 to 100 nM | Ac-[D-Arg]-Cyclo-[[Abu]-QTWQC]-[Phe(4-2ae)]-[2-Nal]-[THP]-EDD-NH2 (peptide)
9 | 10 to 100 nM | Ac-[D-Arg]-Cyclo-[[Abu]-ETWQC]-[Phe(4-2ae)]-[2-Nal]-[THP]-EDN-NH2 (peptide)
10 | 1 to 10 nM | Ac-[D-Arg]-Cyclo-[[Abu]-QTWEC]-[Phe(4-2ae)]-[2-Nal]-[THP]-ENN-OH (peptide)
11 | 1 to 10 nM | Ac-[D-Arg]-Cyclo-[[Abu]-QTWOC]-[Phe(4-2ae)]-[2-Nal]-[THP]]-END-NH2 (peptide)
12 | 10 to 100 nM | Ac-[D-Arg]-Cyclo-[[Abu]-QTWEC]-[Phe(4-2ae)]-[2-Nal]-[THP]-EDN-NH2 (peptide)
13 | 1 to 10 nM | Ac-[D-Arg]-Cyclo-[[Abu]-ETWQC]-[Phe(4-2ae)]-[2-Nal]-[Tetrahydropyran-A]-END-NH2 (peptide)
14 | 10 to 100 nM | Ac-[D-Arg]-Cyclo-[[Abu]-QTWQC]-[Phe(4-2ae)]-[2-Nal]-[THP]-END-OH (peptide)

What follows are substances tested against IL-23R on human cells (IL-23R-expressing DB cells; human NK cells) (human) (UniProt Q5VWK5) (assay: cell-based or functional assay).
IL-23R on human cells (IL-23R-expressing DB cells; human NK cells) (human), sequence (Q5VWK5 24-629): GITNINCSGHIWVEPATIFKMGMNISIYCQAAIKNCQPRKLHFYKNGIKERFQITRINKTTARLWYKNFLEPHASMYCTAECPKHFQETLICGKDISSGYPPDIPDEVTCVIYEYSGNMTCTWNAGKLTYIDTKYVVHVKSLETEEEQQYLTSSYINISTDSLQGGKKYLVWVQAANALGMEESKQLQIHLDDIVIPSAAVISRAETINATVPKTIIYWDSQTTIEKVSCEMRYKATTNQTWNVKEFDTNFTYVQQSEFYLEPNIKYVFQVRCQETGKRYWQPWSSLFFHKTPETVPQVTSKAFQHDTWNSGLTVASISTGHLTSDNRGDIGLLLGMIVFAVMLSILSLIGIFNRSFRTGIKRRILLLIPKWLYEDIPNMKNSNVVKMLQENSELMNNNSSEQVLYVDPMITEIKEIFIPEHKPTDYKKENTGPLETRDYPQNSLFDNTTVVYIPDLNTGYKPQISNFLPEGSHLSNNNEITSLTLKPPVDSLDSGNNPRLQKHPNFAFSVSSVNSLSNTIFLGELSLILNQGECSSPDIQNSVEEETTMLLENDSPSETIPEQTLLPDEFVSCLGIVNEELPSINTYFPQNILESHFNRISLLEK

Row | pStat3 HTRF IC50 | Substance
15 | < 0.01 µM | Alexa488-PEG4 through [D-Arg]: [D-Arg]-Cyclo-[[Abu]-QTWQC]-[Phe(4-2ae)]-[2-Nal]-[THP]-ENN-NH2 (peptide)

The substances below were run against Rat IL-23R_huFC (rat) (assay: rat ELISA vs IL-23).

Row | IC50 | Substance
16 | < 10 nM | Ac-Cyclo-[[Abu]-QTWQC]-[Phe[4-(2-aminoethoxy)]]-[2-Nal]-[Acvc]-ENN-NH2 (peptide)
17 | < 10 nM | Ac-Cyclo-[[Abu]-QTWQC]-[Phe[4-(2-aminoethoxy)]]-[2-Nal]-[Acbc]-ENN-NH2 (peptide)
18 | < 10 nM | Ac-Cyclo-[[Abu]-QTWQC]-[Phe[4-(2-aminoethoxy)]]-[2-Nal]-[Achc]-ENN-NH2 (peptide)

What follows are substances tested against IL23R_huFC (human) (UniProt Q5VWK5) (assay: IL23-IL23R competitive binding ELISA).
Target sequence in this assay (Q5VWK5 24-353 limits assumed): as the sequence (Q5VWK5 24-353) above

Row | IC50 | Substance
19 | 10 to 25 nM | [Ac-[Pen]-QTWQ-[Pen]-[Phe[4-(2-aminoethoxy)]-[2-Nal]-[Aib]-[Lys(Ac)]-NQ-NH2]2PEG25 (peptide)
20 | 25 to 100 nM | [Ac-[Pen]-QTWQ-[Pen]-[Phe[4-(2-aminoethoxy)]-[2-Nal]-[Aib]-[Lys(Ac)]-NQ-NH2]2DIG (peptide)
